Experimental data as given in paper PMC8607333, “Real-time kinetic studies of Mycobacterium tuberculosis LexA–DNA interaction” (Bioscience Reports, 2021).
Numbering of substitutions follows the chain as printed.

T1: LexA RKG/AAA (Mycobacterium tuberculosis, UniProt P9WHR7 1-236, R75A;K76A;G77A)
T1 sequence: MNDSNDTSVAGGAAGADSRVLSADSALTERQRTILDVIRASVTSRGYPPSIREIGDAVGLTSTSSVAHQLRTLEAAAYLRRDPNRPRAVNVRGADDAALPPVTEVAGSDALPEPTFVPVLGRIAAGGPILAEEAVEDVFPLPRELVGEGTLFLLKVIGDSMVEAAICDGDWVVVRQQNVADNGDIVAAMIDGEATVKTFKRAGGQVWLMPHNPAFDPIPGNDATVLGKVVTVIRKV

B1: Mycobacterium tuberculosis LexA, wild type (natural protein)
chain: T1 sequence with A75R, A76K, A77G
notes: also called Mtb LexA; WT Mtb LexA
B2: Mtb LexA RKG/AAA (natural protein)
chain: T1 sequence
notes: also called RKG/AAA mutant; RKG mutant
B3: Mtb LexAΔ18aa (natural protein)
chain: MNDSNDTSVAGGAAGADSRVLSADSALTERQRTILDVIRASVTSRGYPPSIREIGDAVGLTSTSSVAHQLRTLERKGYLRRDPNRPRAVNVRGPEPTFVPVLGRIAAGGPILAEEAVEDVFPLPRELVGEGTLFLLKVIGDSMVEAAICDGDWVVVRQQNVADNGDIVAAMIDGEATVKTFKRAGGQVWLMPHNPAFDPIPGNDATVLGKVVTVIRKV
notes: also called ∆18aa variant; LexA18aaΔ
B4: dnaE2_44mer SOS box, biotinylated (dsDNA)
DNA 1: ACAACTGCGCTGTATCGAACAATTGTTCGATATACTGTGGAATG
DNA 2: CATTCCACAGTATATCGAACAATTGTTCGATACAGCGCAGTTGT
B5: dnaE2 44mer SOS box, 32P end-labeled (dsDNA)
DNA 1: B4 DNA 1
DNA 2: B4 DNA 2
B6: dnaE2 44mer SOS box, non-biotinylated (dsDNA)
DNA 1: B4 DNA 1
DNA 2: B4 DNA 2
B7: Mtb LexAΔ24aa (domain or fragment)
chain: SALTERQRTILDVIRASVTSRGYPPSIREIGDAVGLTSTSSVAHQLRTLERKGYLRRDPNRPRAVNVRGADDAALPPVTEVAGSDALPEPTFVPVLGRIAAGGPILAEEAVEDVFPLPRELVGEGTLFLLKVIGDSMVEAAICDGDWVVVRQQNVADNGDIVAAMIDGEATVKTFKRAGGQVWLMPHNPAFDPIPGNDATVLGKVVTVIRKV
notes: also called ∆24aa variant; LexA∆24aa

Tests used:
SEC = molecular target: the molecule itself; assay: SEC
LexA RKG/AAA [1] = molecular target: T1, LexA RKG/AAA; assay: BLI; pH 7.5; association up to 600 s; BLI: 10 mM HEPES pH 7.5, 50 mM NaCl, 25 C (pH 4 buffer not stated), 1:1 global fit; […]; conditions: protein: recombinant; tags: 6xHis; chain copies: 2; label: 5' biotin on strand 1; blunt
LexA RKG/AAA [2] = molecular target: T1, LexA RKG/AAA; assay: EMSA; 128 nM protein; BLI: 10 mM HEPES pH 7.5, 50 mM NaCl, 25 C (pH 4 buffer not stated), 1:1 global fit; […]; conditions: protein: recombinant; tags: 6xHis; chain copies: 2; label: 32P end label, no biotin; blunt
LexA RKG/AAA [3] = molecular target: T1, LexA RKG/AAA; assay: ANS extrinsic fluorescence quench; ANS, 1:2 ratio; no significant quench; BLI: 10 mM HEPES pH 7.5, 50 mM NaCl, 25 C (pH 4 buffer not stated), 1:1 global fit; […]; conditions: protein: recombinant; tags: 6xHis; chain copies: 2; blunt

| Binder | stoichiometry N (SEC) | further results |
| --- | --- | --- |
| B1 | 2 | – |
| B2 | 2 | – |
| B3 | 2 | – |
| B4 | – | binding result (LexA RKG/AAA [1]): no binding |
| B5 | – | binding result (LexA RKG/AAA [2]): no binding |
| B6 | – | binding result (LexA RKG/AAA [3]): no binding |
| B7 | 2 | – |
